This is an account of results in paper PMC10269722, “LexR Positively Regulates the LexABC Efflux Pump Involved in Self-Resistance to the Antimicrobial Di-N-Oxide Phenazine in Lysobacter antibioticus”.

Data set [1] has as its target T1, LexR (Lysobacter antibioticus OH13, UniProt A0A0S2F3V0 1-384).
T1 sequence: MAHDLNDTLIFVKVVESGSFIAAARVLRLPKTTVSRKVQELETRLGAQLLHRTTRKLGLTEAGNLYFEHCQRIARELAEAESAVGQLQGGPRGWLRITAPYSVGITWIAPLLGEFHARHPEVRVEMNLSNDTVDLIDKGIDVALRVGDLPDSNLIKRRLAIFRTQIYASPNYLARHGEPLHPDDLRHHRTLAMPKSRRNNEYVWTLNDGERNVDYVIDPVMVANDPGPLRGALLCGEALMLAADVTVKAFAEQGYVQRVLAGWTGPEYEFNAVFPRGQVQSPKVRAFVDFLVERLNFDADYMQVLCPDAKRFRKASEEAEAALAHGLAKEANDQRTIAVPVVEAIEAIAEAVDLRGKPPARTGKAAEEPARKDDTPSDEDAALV
Nature of the data set: EMSA; EMSA (LightShift kit): 1x binding buffer, 50 ng/uL poly(dI-dC), 2.5% glycerol, 5 mM MgCl (so in the source), 0.05% NP-40, 5 fmol labeled probe in 20 uL, 30 min, room. The note with it: protein: recombinant; tags: His6 (pET-28a, BamHI/EcoRI); chain copies: 2; label: 5' biotin; blunt. On the technique in general: Mobility shift assays separate free from complexed probe on a gel.

The target in data set [2] is T1, LexR. Nature of the data set: EMSA; no myxin; EMSA (LightShift kit): 1x binding buffer, 50 ng/uL poly(dI-dC), 2.5% glycerol, 5 mM MgCl (so in the source), 0.05% NP-40, 5 fmol labeled probe in 20 uL, 30 min, room. The note with it: protein: recombinant; tags: His6 (pET-28a, BamHI/EcoRI); chain copies: 2; label: 5' biotin; blunt.
Data set [3] deals with T1, LexR. Kind of data set: competition; unlabeled competitor vs biotin-lex probe; EMSA (LightShift kit): 1x binding buffer, 50 ng/uL poly(dI-dC), 2.5% glycerol, 5 mM MgCl (so in the source), 0.05% NP-40, 5 fmol labeled probe in 20 uL, 30 min, room. To be noted: protein: recombinant; tags: His6 (pET-28a, BamHI/EcoRI); chain copies: 2; label: none; blunt.

B1: probe 1 (58 bp) (dsDNA)
DNA 1: ACTTGATTAGCCACTGATTCAGGGAATAATTGTCCCGACATCGGGCCAATGCCCTCTC
DNA 2: GAGAGGGCATTGGCCCGATGTCGGGACAATTATTCCCTGAATCAGTGGCTAATCAAGT
Regarding B1, the binding result with LexR [1] was “binds”.

B2: probe 2 (50 bp, 8-bp site deleted) (dsDNA)
DNA 1: ACTTGATTAGCCACTGATTCAGGGACCCGACATCGGGCCAATGCCCTCTC
DNA 2: GAGAGGGCATTGGCCCGATGTCGGGTCCCTGAATCAGTGGCTAATCAAGT
With B2, the binding result with LexR [1] is listed as “no binding”.

B3: lex probe (165 bp) (dsDNA)
DNA 1: ATGGGAGAAACGCGAATCGGGCTTGTCGGGGGCTCAACATGGCGGGGGGCCTCGTGTCGATCTGCGGCAAAGAGTAGAGAGATGGACGGCACTTGATTAGCCACTGATTCAGGGAATAATTGTCCCGACATCGGGCCAATGCCCTCTCTGCCTCCTTGAATGCCC
DNA 2: GGGCATTCAAGGAGGCAGAGAGGGCATTGGCCCGATGTCGGGACAATTATTCCCTGAATCAGTGGCTAATCAAGTGCCGTCCATCTCTCTACTCTTTGCCGCAGATCGACACGAGGCCCCCCGCCATGTTGAGCCCCCGACAAGCCCGATTCGCGTTTCTCCCAT
Take B3: the binding result with LexR [2] is “binds”.

B4: unlabeled lex probe (165 bp) (dsDNA)
DNA 1: B3 DNA 1
DNA 2: B3 DNA 2
Turning to B4, the binding result with LexR [3] was “binds”.

B5: control probe (158 bp) (dsDNA)
DNA 1: ATGCGCCTCGCGATCAACACGGTCGCATCCCCTCTTTGCCAGCCACGGCTCCGCGCCTGCCAGCTTCTTTTTTCGTTGTCTGGGGGCTAGGGCGAGACACCCGCATACCGATGACTTCGTCGGCAGTGGCCCAAGACGGATTGCGTAGTGCGCCTACG
DNA 2: CGTAGGCGCACTACGCAATCCGTCTTGGGCCACTGCCGACGAAGTCATCGGTATGCGGGTGTCTCGCCCTAGCCCCCAGACAACGAAAAAAGAAGCTGGCAGGCGCGGAGCCGTGGCTGGCAAAGAGGGGATGCGACCGTGTTGATCGCGAGGCGCAT
In the case of B5, the binding result in the data set with LexR [1] is given as “no binding”.

B6: probe 4 (probe 3 with putative LexR site) (dsDNA)
DNA 1: GGCTCCGCGCCTGCCAGCATAATTGTTCGTTGTCTGGGGGCTAGGGCGAGACACCCGC
DNA 2: GCGGGTGTCTCGCCCTAGCCCCCAGACAACGAACAATTATGCTGGCAGGCGCGGAGCC
Regarding B6, the binding result in the data set with LexR [1] is on record as “no binding”.
